Patent publication US20100291106A1 (Novartis, published 2010)

Key:
[1] = target: T1, cynomolgus complement C3b protein (cynomolgus monkey (Macaca fascicularis)); assay: solution equilibrium titration (SET), ECL detection, Fab
T1 construct: also called cyno C3b; cynoC3b

[2] = target: T2, human complement C3b protein (human, UniProt P01024 23-667; P01024 749-1663); assay: as above
T2 construct: Purified plasma C3b (Complement Technology, Quidel); Depending on the assay it was captured by an anti-C3d antibody, coated, biotinylated or coupled to beads; also called human C3b; huC3b

human C5 = target: T3, human C5 (human, UniProt P01031 19-673; P01031 678-1676); assay: cross reactivity, capture ELISA with anti-C5 capture antibody, anti-His detection
T3 construct: Captured by an anti-C5 antibody in the ELISA

[3] = target: T1, cynomolgus complement C3b protein; assay: cell-based or functional assay
[4] = target: T2, human complement C3b protein; assay: cell-based or functional assay
[5] = target: T1, cynomolgus complement C3b protein; assay: SPR (Biacore), C3b captured by anti-C3d antibody, Fab as analyte
[6] = target: T2, human complement C3b protein; assay: as above
human C3d = target: T4, human C3d (human, UniProt P01024 1002-1303); assay: cross reactivity, ELISA on C3d, anti-His detection
T4 construct: domain: C3d
T4 sequence (P01024 1002-1303 limits assumed): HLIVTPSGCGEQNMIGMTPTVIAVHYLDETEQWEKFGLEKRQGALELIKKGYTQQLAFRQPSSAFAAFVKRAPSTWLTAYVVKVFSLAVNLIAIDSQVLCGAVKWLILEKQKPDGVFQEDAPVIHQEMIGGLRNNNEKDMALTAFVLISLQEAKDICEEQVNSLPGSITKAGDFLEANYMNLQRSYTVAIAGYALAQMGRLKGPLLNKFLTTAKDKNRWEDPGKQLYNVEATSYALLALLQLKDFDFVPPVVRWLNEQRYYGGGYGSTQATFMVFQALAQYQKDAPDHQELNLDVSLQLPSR

T2 sequence (P01024 23-667 P314L, chain 1 of 2): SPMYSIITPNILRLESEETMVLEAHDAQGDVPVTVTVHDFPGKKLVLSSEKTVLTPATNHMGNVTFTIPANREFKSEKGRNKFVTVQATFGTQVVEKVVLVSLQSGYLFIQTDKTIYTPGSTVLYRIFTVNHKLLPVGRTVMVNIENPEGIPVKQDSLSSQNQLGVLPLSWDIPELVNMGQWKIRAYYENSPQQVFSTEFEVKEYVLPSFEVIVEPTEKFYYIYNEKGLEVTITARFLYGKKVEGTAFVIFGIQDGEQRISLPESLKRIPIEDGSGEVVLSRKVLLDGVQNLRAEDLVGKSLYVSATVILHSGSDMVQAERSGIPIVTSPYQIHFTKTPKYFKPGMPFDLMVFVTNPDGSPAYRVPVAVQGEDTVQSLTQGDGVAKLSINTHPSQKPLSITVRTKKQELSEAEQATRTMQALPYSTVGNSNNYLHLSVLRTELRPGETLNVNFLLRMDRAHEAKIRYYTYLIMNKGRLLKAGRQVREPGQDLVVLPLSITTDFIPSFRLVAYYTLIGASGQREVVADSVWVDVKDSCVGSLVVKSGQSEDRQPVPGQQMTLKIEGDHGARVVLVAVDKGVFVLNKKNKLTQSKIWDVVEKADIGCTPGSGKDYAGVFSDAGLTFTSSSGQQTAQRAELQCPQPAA
T2 sequence (P01024 749-1663, chain 2 of 2): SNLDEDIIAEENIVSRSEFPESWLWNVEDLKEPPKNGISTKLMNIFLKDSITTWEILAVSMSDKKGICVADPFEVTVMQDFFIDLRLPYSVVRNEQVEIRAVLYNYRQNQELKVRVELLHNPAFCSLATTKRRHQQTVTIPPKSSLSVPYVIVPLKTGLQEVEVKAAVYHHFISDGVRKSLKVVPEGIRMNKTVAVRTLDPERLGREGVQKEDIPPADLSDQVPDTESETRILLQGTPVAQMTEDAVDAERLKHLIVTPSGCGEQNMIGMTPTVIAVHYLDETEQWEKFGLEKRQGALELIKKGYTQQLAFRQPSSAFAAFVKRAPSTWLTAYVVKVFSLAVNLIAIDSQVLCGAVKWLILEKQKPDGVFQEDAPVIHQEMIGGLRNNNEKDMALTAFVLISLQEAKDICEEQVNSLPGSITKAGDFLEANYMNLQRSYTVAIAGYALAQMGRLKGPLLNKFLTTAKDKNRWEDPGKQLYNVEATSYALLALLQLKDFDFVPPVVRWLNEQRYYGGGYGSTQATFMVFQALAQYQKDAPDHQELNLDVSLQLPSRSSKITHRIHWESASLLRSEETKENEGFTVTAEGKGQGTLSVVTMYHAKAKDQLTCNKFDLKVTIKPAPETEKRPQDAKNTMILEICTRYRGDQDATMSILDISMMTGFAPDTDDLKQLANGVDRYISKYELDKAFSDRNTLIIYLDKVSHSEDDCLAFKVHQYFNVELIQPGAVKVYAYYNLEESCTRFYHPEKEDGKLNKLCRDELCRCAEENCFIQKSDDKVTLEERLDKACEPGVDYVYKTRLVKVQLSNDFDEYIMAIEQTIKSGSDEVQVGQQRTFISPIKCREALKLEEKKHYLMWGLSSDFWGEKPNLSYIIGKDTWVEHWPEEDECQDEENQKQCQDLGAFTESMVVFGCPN
T3 sequence (P01031 19-673 limits assumed, chain 1 of 2): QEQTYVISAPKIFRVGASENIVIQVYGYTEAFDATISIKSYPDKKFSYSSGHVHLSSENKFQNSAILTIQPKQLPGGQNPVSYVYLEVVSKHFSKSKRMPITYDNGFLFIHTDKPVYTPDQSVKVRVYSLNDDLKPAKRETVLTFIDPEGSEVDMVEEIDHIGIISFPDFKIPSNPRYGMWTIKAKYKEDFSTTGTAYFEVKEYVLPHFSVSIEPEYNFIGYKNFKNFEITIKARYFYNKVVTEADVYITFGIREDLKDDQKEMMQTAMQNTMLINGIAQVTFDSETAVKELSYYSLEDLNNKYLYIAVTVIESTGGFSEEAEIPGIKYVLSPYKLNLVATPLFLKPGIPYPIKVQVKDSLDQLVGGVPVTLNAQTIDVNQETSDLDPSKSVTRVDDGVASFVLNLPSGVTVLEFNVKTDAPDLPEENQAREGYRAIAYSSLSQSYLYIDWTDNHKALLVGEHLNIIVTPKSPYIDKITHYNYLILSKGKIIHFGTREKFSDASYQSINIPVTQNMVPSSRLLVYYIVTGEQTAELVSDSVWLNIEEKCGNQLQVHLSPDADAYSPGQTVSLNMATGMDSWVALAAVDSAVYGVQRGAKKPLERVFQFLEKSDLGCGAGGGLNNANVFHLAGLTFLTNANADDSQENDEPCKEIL
T3 sequence (P01031 678-1676 limits assumed, chain 2 of 2): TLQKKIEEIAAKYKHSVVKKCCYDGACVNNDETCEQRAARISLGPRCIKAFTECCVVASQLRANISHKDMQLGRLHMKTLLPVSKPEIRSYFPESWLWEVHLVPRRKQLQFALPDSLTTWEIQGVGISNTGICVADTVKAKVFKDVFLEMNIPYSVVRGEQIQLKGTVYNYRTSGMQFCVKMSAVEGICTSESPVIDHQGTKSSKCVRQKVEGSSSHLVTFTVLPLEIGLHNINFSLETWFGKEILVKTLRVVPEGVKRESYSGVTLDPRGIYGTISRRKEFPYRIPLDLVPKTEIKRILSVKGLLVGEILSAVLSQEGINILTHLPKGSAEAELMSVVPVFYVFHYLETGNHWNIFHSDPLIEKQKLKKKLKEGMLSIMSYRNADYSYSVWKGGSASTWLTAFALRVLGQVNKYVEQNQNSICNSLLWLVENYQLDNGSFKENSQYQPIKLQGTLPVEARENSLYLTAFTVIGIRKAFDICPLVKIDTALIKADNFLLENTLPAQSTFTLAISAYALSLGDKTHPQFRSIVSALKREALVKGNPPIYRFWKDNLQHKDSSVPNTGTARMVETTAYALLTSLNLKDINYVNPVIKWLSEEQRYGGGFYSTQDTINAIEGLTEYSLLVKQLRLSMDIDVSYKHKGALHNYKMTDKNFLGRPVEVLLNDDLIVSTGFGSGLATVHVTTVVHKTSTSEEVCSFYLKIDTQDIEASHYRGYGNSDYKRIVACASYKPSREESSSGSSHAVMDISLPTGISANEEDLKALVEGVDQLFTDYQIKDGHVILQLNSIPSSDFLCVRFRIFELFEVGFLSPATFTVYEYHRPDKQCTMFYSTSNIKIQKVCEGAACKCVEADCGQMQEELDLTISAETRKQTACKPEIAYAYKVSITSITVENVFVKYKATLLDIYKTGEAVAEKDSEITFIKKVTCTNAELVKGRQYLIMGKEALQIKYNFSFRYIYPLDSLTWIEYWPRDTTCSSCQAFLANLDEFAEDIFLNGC

- Kd [1]: 0.006 nM
- Kd [2]: 0.018 nM
- binding result (human C5): no binding
- C3b Dep (nM), cyno serum, IC50 [3]: 39 nM
- HA (nM), 10% cyno serum, IC50 [3]: 64 nM
- MAC Dep (nM), cyno serum, IC50 [3]: 18 nM
- C3a (nM), human, inhibition of C3a generation [4]: 66 nM
- C3b Dep (nM), human serum, IC50 [4]: 20 nM
- C5a (nM), human, inhibition of C5a generation [4]: 34 nM
- HA (nM), 10% human serum, IC50 [4]: 63 nM
- MAC Dep (nM), human serum, IC50 [4]: 4 nM
- Kd [5]: 0.07 nM
- Kd [6]: 0.114 nM
- binding result (human C3d): no binding
B1: MOR9610 Fab format (Fab, V domains shown)
VH: EVQLVQSGAEVKKPGSSVKVSCKASGGTFSSYTFSWVRQAPGQGLEWMGNILPIFGDANYAQKFQGRVTITADESTSTAYMELSSLRSEDTAVYYCARNKGAFYYMSTYPSLDVWGQGTLVTVSS
VL: DIQMTQSPSSLSASVGDRVTITCRASQNINYYLNWYQQKPGKAPKLLIYDAFSLQSGVPSRFSGSGSGTDFTLTISSLQPEDFATYYCQQSIAVPPFTFGQGTKVEIK
